# From US20030147883A1
# Key:
# [1] = molecular target: Epitope tagged high affinity fMLP receptor FPR (on ETFR cells) (UniProt P21462); assay: cell-based or functional assay
# [2] = molecular target: FPR-like receptor 1 (FPRL1) (UniProt P25090); assay: cell-based or functional assay
# FPR-like receptor 1 (FPRL1), sequence (P25090 whole entry): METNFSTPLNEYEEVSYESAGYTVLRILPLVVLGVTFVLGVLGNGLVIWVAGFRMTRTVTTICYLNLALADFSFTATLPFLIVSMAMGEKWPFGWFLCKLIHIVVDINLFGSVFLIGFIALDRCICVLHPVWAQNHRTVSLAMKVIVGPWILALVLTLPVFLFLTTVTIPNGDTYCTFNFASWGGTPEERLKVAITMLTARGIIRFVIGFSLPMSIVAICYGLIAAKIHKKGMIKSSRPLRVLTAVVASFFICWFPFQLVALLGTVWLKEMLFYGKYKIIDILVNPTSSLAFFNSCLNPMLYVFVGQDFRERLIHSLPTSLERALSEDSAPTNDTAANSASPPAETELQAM
# Epitope tagged high affinity fMLP receptor FPR (on ETFR cells), sequence (P21462 whole entry): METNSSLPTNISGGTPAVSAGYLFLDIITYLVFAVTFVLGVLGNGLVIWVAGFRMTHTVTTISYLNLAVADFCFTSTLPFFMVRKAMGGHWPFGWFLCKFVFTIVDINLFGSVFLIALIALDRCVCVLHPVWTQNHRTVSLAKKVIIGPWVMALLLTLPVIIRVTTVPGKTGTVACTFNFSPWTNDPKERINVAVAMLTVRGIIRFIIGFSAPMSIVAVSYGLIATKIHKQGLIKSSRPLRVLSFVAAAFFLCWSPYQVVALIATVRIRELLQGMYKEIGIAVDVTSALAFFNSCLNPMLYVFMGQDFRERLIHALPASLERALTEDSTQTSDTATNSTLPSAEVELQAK
substance,measurement,setting,value
N-formyl-methionyl-leucyl-phenylalanine (fMLP) (peptide),"Ca^2+ mobilization in ETFR cells, minimal effective dose",[1],100 pM
same,cross-desensitization of Ca^2+ flux in FPRL1/293 cells,[2],100000 fold excess
